According to IntAct's records for PubMed 11278422:

B1: Apoptosis-stimulating of p53 protein 2 (Homo sapiens), Q13625-2 (parent)
chain: MDLTLAELQEMASRQQQQIEAQQQLLATKEQRLKFLKQQDQRQQQQVAEQEKLKRLKEIAENQEAKLKKVRALKGHVEQKRLSNGKLVEEIEQMNNLFQQKQRELVLAVSKVEELTRQLEMLKNGRIDSHHDNQSAVAELDRLYKELQLRNKLNQEQNAKLQQQRECLNKRNSEVAVMDKRVNELRDRLWKKKAALQQKENLPVSSDGNLPQQAASAPSRVAAVGPYIQSSTMPRMPSRPELLVKPALPDGSLVIQASEGPMKIQTLPNMRSGAASQTKGSKIHPVGPDWSPSNADLFPSQGSASVPQSTGNALDQVDDGEVPLREKEKKVRPFSMFDAVDQSNAPPSFGTLRKNQSSEDILRDAQVANKNVAKVPPPVPTKPKQINLPYFGQTNQPPSDIKPDGSSQQLSTVVPSMGTKPKPAGQQPRVLLSPSIPSVGQDQTLSPGSKQESPPAAAVRPFTPQPSKDTLLPPFRKPQTVAASSIYSMYTQQQAPGKNFQQAVQSALTKTHTRGPHFSSVYGKPVIAAAQNQQQHPENIYSNSQGKPGSPEPETEPVSSVQENHENERIPRPLSPTKLLPFLSNPYRNQSDADLEALRKKLSNAPRPLKKRSSITEPEGPNGPNIQKLLYQRTTIAAMETISVPSYPSKSASVTASSESPVEIQNPYLHVEPEKEVVSLVPESLSPEDVGNASTENSDMPAPSPGLDYEPEGVPDNSPNLQNNPEEPNPEAPHVLDVYLEEYPPYPPPPYPSGEPEGPGEDSVSMRPPEITGQVSLPPGKRTNLRKTGSERIAHGMRVKFNPLALLLDSSLEGEFDLVQRIIYEVDDPSLPNDEGITALHNAVCAGHTEIVKFLVQFGVNVNAADSDGWTPLHCAASCNNVQVCKFLVESGAAVFAMTYSDMQTAADKCEEMEEGYTQCSQFLYGVQEKMGIMNKGVIYALWDYEPQNDDELPMKEGDCMTIIHREDEDEIEWWWARLNDKEGYVPRNLLGLYPRIKPRQRSLA

Variants of: B1
Settings: with yap1_chick YAP1, P46936
Chain of yap1_chick YAP1, P46936 (P46936 whole entry): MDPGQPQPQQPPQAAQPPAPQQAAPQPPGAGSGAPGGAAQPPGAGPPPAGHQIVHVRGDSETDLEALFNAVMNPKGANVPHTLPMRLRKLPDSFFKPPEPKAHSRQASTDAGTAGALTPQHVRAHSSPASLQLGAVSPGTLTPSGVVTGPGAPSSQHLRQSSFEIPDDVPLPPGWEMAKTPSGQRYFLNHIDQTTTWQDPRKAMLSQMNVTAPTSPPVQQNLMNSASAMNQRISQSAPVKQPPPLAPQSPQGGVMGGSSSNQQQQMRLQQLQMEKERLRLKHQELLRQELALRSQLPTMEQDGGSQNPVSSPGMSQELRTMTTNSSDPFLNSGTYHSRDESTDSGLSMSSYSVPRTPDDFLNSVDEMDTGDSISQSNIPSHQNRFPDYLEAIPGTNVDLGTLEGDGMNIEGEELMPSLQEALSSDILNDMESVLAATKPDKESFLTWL

Q: For Y746A, which “effect of a mutation on the interaction” value is on record?
A: disrupting interaction

Variants of: B1
Settings: with yap1_chick YAP1, P46936
Remark: another data set of the same source

Q: P748A was tested. Which “effect of a mutation on the interaction” value did it give?
A: disrupting interaction

Variants of: B1
Settings: with yap1_chick YAP1, P46936
Remark: another data set of the same source

Q: For P749A, which “effect of a mutation on the interaction” value is on record?
A: disrupting interaction

Variants of: B1
Settings: with yap1_chick YAP1, P46936
Remark: another data set of the same source

Q: How did the “effect of a mutation on the interaction” value turn out when Y751A was run?
A: disrupting interaction

Variants of: B1
Settings: with yap1_chick YAP1, P46936
Remark: another data set of the same source

Q: P747A was tested. Which “effect of a mutation on the interaction” value did it give?
A: decreasing interaction
